Key:
[1] = target: T1, cyno MerTK-his protein (cynomolgus, UniProt A0A2K5V1H9 27-505); assay: ELISA, coated cyno MerTK-his
T1 construct: also called cyno MerTK protein; Cynomolgus
T1 sequence: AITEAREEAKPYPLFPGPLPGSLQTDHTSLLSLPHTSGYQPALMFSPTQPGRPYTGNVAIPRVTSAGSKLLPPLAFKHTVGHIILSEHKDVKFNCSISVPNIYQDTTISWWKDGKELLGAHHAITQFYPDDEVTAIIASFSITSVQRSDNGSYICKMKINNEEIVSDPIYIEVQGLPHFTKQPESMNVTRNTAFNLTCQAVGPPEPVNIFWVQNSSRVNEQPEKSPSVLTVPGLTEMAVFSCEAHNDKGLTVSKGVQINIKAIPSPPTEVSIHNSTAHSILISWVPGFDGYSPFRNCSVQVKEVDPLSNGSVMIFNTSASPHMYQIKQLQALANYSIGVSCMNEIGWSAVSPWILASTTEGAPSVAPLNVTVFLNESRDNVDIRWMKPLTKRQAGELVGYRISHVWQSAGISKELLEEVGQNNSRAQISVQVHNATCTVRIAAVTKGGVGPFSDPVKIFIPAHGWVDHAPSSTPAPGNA
Procedure: (§1) To evaluate the binding activity, the chimeric mAbs were subjected to ELISA test. Briefly, 96-well plates were coated with human or cyno MerTK-his protein at 2 μg/mL in PBS, 100 μL/well at 4° C. overnight, then blocked with 150 μL/well of 1% BSA. Five-fold dilutions of MerTK antibodies starting from 20 nM were added to each well and incubated for 1 hour at room temperature. The plates were washed with PBS/Tween-20 and then incubated with goat anti-human IgG Fe antibody conjugated with Horse Radish Peroxidase (HRP) for 30 minutes (mins) at room temperature. After washing, the plates were developed with TMB substrate and subsequent stop solution was added to complete the reaction. The signal from each well was read by spectrophotometer at OD 450 nm.

[2] = target: T2, human MerTK-his protein (human, UniProt Q12866 21-505); assay: ELISA, coated human MerTK-his
T2 construct: extracellular domain; also called hMerTK-His; human MerTK protein
T2 sequence (looked up): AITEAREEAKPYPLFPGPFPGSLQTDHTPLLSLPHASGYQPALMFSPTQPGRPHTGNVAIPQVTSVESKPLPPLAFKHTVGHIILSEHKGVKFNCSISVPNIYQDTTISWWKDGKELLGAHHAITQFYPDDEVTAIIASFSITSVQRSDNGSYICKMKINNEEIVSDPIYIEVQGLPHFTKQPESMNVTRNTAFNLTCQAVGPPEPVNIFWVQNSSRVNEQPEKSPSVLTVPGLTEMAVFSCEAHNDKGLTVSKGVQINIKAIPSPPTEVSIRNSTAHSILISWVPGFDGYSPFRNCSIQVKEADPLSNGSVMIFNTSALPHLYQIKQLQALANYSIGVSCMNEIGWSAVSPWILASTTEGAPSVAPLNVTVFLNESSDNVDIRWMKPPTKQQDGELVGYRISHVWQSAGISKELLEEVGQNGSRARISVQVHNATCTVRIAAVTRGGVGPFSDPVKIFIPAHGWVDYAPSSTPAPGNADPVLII
Procedure: as §1

[3] = target: T3, human MerTK expressed on cells (human, UniProt Q12866 21-999); assay: FACS on CHO-K1 cells overexpressing human MerTK, MFI (PE)
T3 construct: whole, on cells; also called CHO-K1-hMerTK; CHO-K1-MerTK
T3 sequence (looked up): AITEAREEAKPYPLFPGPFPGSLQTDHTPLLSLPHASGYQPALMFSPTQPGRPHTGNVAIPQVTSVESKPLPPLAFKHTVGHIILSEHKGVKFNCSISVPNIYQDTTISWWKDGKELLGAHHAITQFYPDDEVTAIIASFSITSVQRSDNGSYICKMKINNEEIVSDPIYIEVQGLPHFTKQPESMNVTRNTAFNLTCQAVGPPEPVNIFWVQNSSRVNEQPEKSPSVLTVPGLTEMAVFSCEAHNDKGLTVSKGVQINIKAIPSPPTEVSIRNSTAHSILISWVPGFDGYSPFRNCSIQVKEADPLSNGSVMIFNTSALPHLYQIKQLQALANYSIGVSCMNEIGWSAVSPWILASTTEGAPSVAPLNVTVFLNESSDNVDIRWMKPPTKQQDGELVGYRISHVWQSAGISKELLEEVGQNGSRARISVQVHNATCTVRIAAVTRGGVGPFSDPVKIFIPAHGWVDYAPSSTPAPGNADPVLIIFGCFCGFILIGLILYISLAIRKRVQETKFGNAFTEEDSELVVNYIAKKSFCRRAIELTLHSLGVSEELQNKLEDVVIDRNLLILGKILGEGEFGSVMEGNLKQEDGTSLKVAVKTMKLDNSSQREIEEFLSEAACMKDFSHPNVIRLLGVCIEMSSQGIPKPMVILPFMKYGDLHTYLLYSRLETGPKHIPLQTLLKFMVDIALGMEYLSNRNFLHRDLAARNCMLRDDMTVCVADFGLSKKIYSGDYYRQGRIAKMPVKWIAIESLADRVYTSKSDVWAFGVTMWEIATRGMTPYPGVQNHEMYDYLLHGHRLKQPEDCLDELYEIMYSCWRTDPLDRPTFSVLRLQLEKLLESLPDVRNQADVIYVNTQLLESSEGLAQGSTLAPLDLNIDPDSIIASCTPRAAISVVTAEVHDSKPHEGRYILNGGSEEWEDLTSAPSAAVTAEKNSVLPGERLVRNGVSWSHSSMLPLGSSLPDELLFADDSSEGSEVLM
Procedure: To evaluate the binding property to the antigen expressed on the cells, the chimeric monoclonal antibodies were analyzed for their binding to human MerTK overexpressed on CHO-K1 cells by FACS. Briefly, human MerTK overexpressing CHO-K1 (CHO-K1-MerTK) cells were firstly incubated with 5-fold serially diluted mAbs starting at 20 nM at 4° C. for 1 hour. After washing with FACS buffer, the PE conjugated anti-human IgG-Fc secondary antibody was added to each well and incubated at 4° C., for 30 mins. The mean fluorescence intensity (MFI) of PE were evaluated by QuantAnalyzer 16.

B1: 280C6A3 chimeric monoclonal antibody (antibody, V domains shown)
VH: QVQLQQSGPELVKPGASVKLSCKASGYSFTTYDINWVKQRPGQGLEWIGWIYPRDGSTKYNEKFKGKATLTLDTSSNTAYMGLHSLTSEDSAVYFCARGYYDNLYYFDYWGQGTTLTVSS
VL: EIVLTQSPTTMAASPGEKITITCSASSSVSSNYLHWYQQKPGFSPKLLIYRTSNLASGVPARFSGSGSGTSYSLTIGTMEAEDVATYYCQQGRIVPLTFGAGTKLELK
EC50 [1]: 0.014 nM | EC50 [2]: 0.012 nM | EC50 [3]: 0.044 nM | Top [3]: 8310 MFI (PE)
